Measurements as given in patent publication US20220396635A1 (UNIVERSIT T STUTTGART, published 2022).

T1: CEA (UniProt P06731 35-685)
T1 sequence (looked up): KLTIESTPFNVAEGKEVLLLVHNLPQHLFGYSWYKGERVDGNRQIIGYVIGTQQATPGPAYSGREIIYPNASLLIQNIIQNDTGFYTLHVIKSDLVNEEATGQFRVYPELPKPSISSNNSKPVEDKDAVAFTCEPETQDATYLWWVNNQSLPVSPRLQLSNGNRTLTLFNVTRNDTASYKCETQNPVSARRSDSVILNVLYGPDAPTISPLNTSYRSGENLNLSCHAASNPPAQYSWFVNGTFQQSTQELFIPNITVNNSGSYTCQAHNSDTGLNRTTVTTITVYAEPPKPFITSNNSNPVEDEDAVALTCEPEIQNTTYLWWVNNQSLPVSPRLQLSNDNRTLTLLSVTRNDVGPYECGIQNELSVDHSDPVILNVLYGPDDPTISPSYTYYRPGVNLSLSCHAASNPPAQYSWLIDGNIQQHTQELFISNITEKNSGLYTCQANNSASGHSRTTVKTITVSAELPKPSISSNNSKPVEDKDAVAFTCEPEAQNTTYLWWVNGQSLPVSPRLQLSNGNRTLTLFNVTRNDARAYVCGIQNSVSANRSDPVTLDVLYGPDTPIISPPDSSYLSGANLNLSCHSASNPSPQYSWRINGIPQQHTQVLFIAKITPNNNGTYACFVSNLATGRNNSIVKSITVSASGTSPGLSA

B1: scDb/scFv-Fc (1-2)+1, trivalent bispecific anti-CEAxanti-CD3 (bispecific antibody)
chain 1: QVKLQQSGAELVRSGTSVKLSCTASGFNIKDSYMHWLRQGPEQGLEWIGWIDPENGDTEYAPKFQGKATFTTDTSSNTAYLQLSSLTSEDTAVYYCNEGTPTGPYYFDYWGQGTTVTVSSGGGGSDIQMTQSPSSLSASVGDRVTITCRASQDIRNYLNWYQQKPGKAPKLLIYYTSRLHSGVPSRFSGSGSGTDFTFTISSLQPEDIATYYCQQGNTLPWTFGQGTKLEIKRGGGGSGGGGSGGGGSQVQLVQSGAEVKKPGSSVKVSCKASGGTFSGYTMNWVRQAPGQGLEWMGLINPYKGVSTYNGKFKDRVTITADKSTSTAYMELSSLRSEDTAVYYCARSGYYGDSDWYFDVWGQGTLVTVSSGGGGSDIELTQSPAIMSASPGEKVTITCSASSSVSYMHWFQQKPGTSPKLWIYSTSNLASGVPARFSGSGSGTSYSLTISRMEAEDAATYYCQQRSSYPLTFGAGTKLELKRAAADKTHTCPPCPAPPVAGPSVFLFPPKPKDTLMISRTPEVTCVVVDVSHEDPEVKFNWYVDGVEVHNAKTKPREEQYNSTYRVVSVLTVLHQDWLNGKEYKCKVSNKGLPSSIEKTISKAKGQPREPQVCTLPPSRDELTKNQVSLSCAVKGFYPSDIAVEWESNGQPENNYKTTPPVLDSDGSFFLVSKLTVDKSRWQQGNVFSCSVMHEALHNHYTQKSLSLSPGK
chain 2: QVKLQQSGAELVRSGTSVKLSCTASGFNIKDSYMHWLRQGPEQGLEWIGWIDPENGDTEYAPKFQGKATFTTDTSSNTAYLQLSSLTSEDTAVYYCNEGTPTGPYYFDYWGQGTTVTVSSGGGGSGGGGSGGGGSDIELTQSPAIMSASPGEKVTITCSASSSVSYMHWFQQKPGTSPKLWIYSTSNLASGVPARFSGSGSGTSYSLTISRMEAEDAATYYCQQRSSYPLTFGAGTKLELKRAAADKTHTCPPCPAPPVAGPSVFLFPPKPKDTLMISRTPEVTCVVVDVSHEDPEVKFNWYVDGVEVHNAKTKPREEQYNSTYRVVSVLTVLHQDWLNGKEYKCKVSNKGLPSSIEKTISKAKGQPREPQVYTLPPCRDELTKNQVSLWCLVKGFYPSDIAVEWESNGQPENNYKTTPPVLDSDGSFFLYSKLTVDKSRWQQGNVFSCSVMHEALHNHYTQKSLSLSPGK
notes: also called scDbCEAxhuU3-Fc(hole)Δab + scFvCEA-Fc(knob)Δab
B2: scDb/Fab-Fc (1-2)+1, trivalent bispecific anti-CEAxanti-CD3 (bispecific antibody, human IgG1, kappa)
chain: QVKLQQSGAELVRSGTSVKLSCTASGFNIKDSYMHWLRQGPEQGLEWIGWIDPENGDTEYAPKFQGKATFTTDTSSNTAYLQLSSLTSEDTAVYYCNEGTPTGPYYFDYWGQGTTVTVSSGGGGSDIQMTQSPSSLSASVGDRVTITCRASQDIRNYLNWYQQKPGKAPKLLIYYTSRLHSGVPSRFSGSGSGTDFTFTISSLQPEDIATYYCQQGNTLPWTFGQGTKLEIKRGGGGSGGGGSGGGGSQVQLVQSGAEVKKPGSSVKVSCKASGGTFSGYTMNWVRQAPGQGLEWMGLINPYKGVSTYNGKFKDRVTITADKSTSTAYMELSSLRSEDTAVYYCARSGYYGDSDWYFDVWGQGTLVTVSSGGGGSDIELTQSPAIMSASPGEKVTITCSASSSVSYMHWFQQKPGTSPKLWIYSTSNLASGVPARFSGSGSGTSYSLTISRMEAEDAATYYCQQRSSYPLTFGAGTKLELKRAAADKTHTCPPCPAPPVAGPSVFLFPPKPKDTLMISRTPEVTCVVVDVSHEDPEVKFNWYVDGVEVHNAKTKPREEQYNSTYRVVSVLTVLHQDWLNGKEYKCKVSNKGLPSSIEKTISKAKGQPREPQVCTLPPSRDELTKNQVSLSCAVKGFYPSDIAVEWESNGQPENNYKTTPPVLDSDGSFFLVSKLTVDKSRWQQGNVFSCSVMHEALHNHYTQKSLSLSPGK
heavy: QVKLQQSGAELVRSGTSVKLSCTASGFNIKDSYMHWLRQGPEQGLEWIGWIDPENGDTEYAPKFQGKATFTTDTSSNTAYLQLSSLTSEDTAVYYCNEGTPTGPYYFDYWGQGTTVTVSSASTKGPSVFPLAPSSKSTSGGTAALGCLVKDYFPEPVTVSWNSGALTSGVHTFPAVLQSSGLYSLSSVVTVPSSSLGTQTYICNVNHKPSNTKVDKKVEPKSCDKTHTCPPCPAPPVAGPSVFLFPPKPKDTLMISRTPEVTCVVVDVSHEDPEVKFNWYVDGVEVHNAKTKPREEQYNSTYRVVSVLTVLHQDWLNGKEYKCKVSNKGLPSSIEKTISKAKGQPREPQVYTLPPCRDELTKNQVSLWCLVKGFYPSDIAVEWESNGQPENNYKTTPPVLDSDGSFFLYSKLTVDKSRWQQGNVFSCSVMHEALHNHYTQKSLSLSPGK
light: DIELTQSPAIMSASPGEKVTITCSASSSVSYMHWFQQKPGTSPKLWIYSTSNLASGVPARFSGSGSGTSYSLTISRMEAEDAATYYCQQRSSYPLTFGAGTKLELKRRTVAAPSVFIFPPSDEQLKSGTASVVCLLNNFYPREAKVQWKVDNALQSGNSQESVTEQDSKDSTYSLSSTLTLSKADYEKHKVYACEVTHQGLSSPVTKSFNRGEC
notes: also called scDbCEAxhuU3-Fc(hole)Δab + VHCEA-CH1-Fc(knob)Δab + VLCEA-CLκ
B3: scDb/scFv-Fc (2-1)+1, trivalent bispecific anti-CEAxanti-CD3 (bispecific antibody)
chain 1: QVQLVQSGAEVKKPGSSVKVSCKASGGTFSGYTMNWVRQAPGQGLEWMGLINPYKGVSTYNGKFKDRVTITADKSTSTAYMELSSLRSEDTAVYYCARSGYYGDSDWYFDVWGQGTLVTVSSGGGGSDIELTQSPAIMSASPGEKVTITCSASSSVSYMHWFQQKPGTSPKLWIYSTSNLASGVPARFSGSGSGTSYSLTISRMEAEDAATYYCQQRSSYPLTFGAGTKLELKRGGGGSGGGGSGGGGSQVKLQQSGAELVRSGTSVKLSCTASGFNIKDSYMHWLRQGPEQGLEWIGWIDPENGDTEYAPKFQGKATFTTDTSSNTAYLQLSSLTSEDTAVYYCNEGTPTGPYYFDYWGQGTTVTVSSGGGGSDIQMTQSPSSLSASVGDRVTITCRASQDIRNYLNWYQQKPGKAPKLLIYYTSRLHSGVPSRFSGSGSGTDFTFTISSLQPEDIATYYCQQGNTLPWTFGQGTKLEIKRAAADKTHTCPPCPAPPVAGPSVFLFPPKPKDTLMISRTPEVTCVVVDVSHEDPEVKFNWYVDGVEVHNAKTKPREEQYNSTYRVVSVLTVLHQDWLNGKEYKCKVSNKGLPSSIEKTISKAKGQPREPQVCTLPPSRDELTKNQVSLSCAVKGFYPSDIAVEWESNGQPENNYKTTPPVLDSDGSFFLVSKLTVDKSRWQQGNVFSCSVMHEALHNHYTQKSLSLSPGK
chain 2: QVKLQQSGAELVRSGTSVKLSCTASGFNIKDSYMHWLRQGPEQGLEWIGWIDPENGDTEYAPKFQGKATFTTDTSSNTAYLQLSSLTSEDTAVYYCNEGTPTGPYYFDYWGQGTTVTVSSGGGGSGGGGSGGGGSDIELTQSPAIMSASPGEKVTITCSASSSVSYMHWFQQKPGTSPKLWIYSTSNLASGVPARFSGSGSGTSYSLTISRMEAEDAATYYCQQRSSYPLTFGAGTKLELKRAAADKTHTCPPCPAPPVAGPSVFLFPPKPKDTLMISRTPEVTCVVVDVSHEDPEVKFNWYVDGVEVHNAKTKPREEQYNSTYRVVSVLTVLHQDWLNGKEYKCKVSNKGLPSSIEKTISKAKGQPREPQVYTLPPCRDELTKNQVSLWCLVKGFYPSDIAVEWESNGQPENNYKTTPPVLDSDGSFFLYSKLTVDKSRWQQGNVFSCSVMHEALHNHYTQKSLSLSPGK
notes: also called scDbhuU3xCEA-Fc(hole)Δab + scFvCEA-Fc(knob)Δab

What was measured:
CEA [1] = target: T1, CEA; assay: cell-based or functional assay
CEA [2] = target: T1, CEA; assay: cell-based or functional assay; remark: listed apart in the source
CD3 = target: T2, CD3 (UniProt P07766 23-207); assay: flow cytometry, serial dilution on Jurkat cells (CD3-expressing), PE anti-human Fc detection
T2 construct: whole, on cells; on cells it stands in the TCR/CD3 complex; also called CD3 on Jurkat cells
Procedure: (§1) Binding of trivalent, bispecific fusion proteins to CEA-expressing (LIM1215) and CD3-expressing (Jurkat) cell lines was analyzed by flow cytometry. 2×10⁵ cells/well were incubated with a serial dilution of trivalent, bispecific antibodies for 1 h at 4° C. followed by detection using a PE-conjugated anti-human Fc antibody (Jackson ImmunoResearch Laboratories Inc). […] Regarding the CEA-expressing cell line LIM1215, the trivalent, bispecific antibodies bound with EC₅₀ values in the nanomolar range (FIG. 16A) (Table 9).

CEA [3] = target: T1, CEA; assay: flow cytometry, serial dilution on LIM1215 cells (CEA-expressing), PE anti-human Fc detection
Procedure: as §1

Binder | EC50 of PBMC cytotoxicity on LIM1215 cells, E:T 10:1 (CEA [1]) [nM] | EC50 of IL-2 release, PBMCs co-cultured with LIM1215 cells (CEA [2]) [nM] | EC50 (CD3) [nM] | EC50 (CEA [3]) [nM]
B1 | 0.5 | 1.4 | 7.7 | 1.6
B2 | 0.4 | 0.5 | 5.7 | 2.5
B3 | 0.3 | 1.4 | 7.9 | 1.7
